± gives the standard deviation of the averaged measurements.
B1: library; a variant is named by its letters at N, in order (parent)
chain: GCUGUCACCGGAAUACCAGCAUCGUCUUGAUGCCCUUGGAAGUCCGGUCUGAUGAGUCCNNNNNGGACGAAACAGC
B2: library; a variant is named by its letters at N, in order (parent)
chain: GCUGUCACCGGUGUAUUACCCUAGUGGUCGACCGGUCUGAUGAGUCUNNNNNNAGACGAAACAGC

Legend:
theophylline [1] = variants of: B1; assay: FACS-Seq fitted mean relative fluorescence mCherry/BFP without ligand (log10 relative fluorescence); higher = higher reporter protein expression; conditions: HEK293T, ligand present: no
Procedure, shortened: (§1)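 With or without ligand for 48 h, enriched HEK293T libraries carrying a lentiviral ribozyme-switch mCherry reporter and EF1α-BFP were sorted into 6 mCherry/BFP bins. Bin genomic DNA was amplified by PCR, barcoded and sequenced on MiSeq. Fluorescence was taken from normal fits to the resulting bin counts. Each fitted mean of log10(mCherry/BFP) was scaled to five spiked-in control ribozymes.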

theophylline [2] = variants of: B1; assay: normalized RNA/DNA level with ligand (relative to sTRSVctl = 100) (log10 (% of sTRSVctl)); higher = less ribozyme self-cleavage, higher mRNA level; conditions: ligand concentration (+) RNA-Seq: 5 mM, HEK293T, reporter: mCherry (pCS4076), ligand present: yes
Procedure, shortened: (§2)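 RNA level was computed as RNA reads over DNA reads divided by a spiked-in non-cleaving sequence or by the top sequences, then scaled and log-transformed. Scaling was ×100 with log10, the top group was 25 sequences, and the threshold was ≥100 DNA reads. The reads came from HEK293T cells transfected at 4 µg per 6-well well with ribozyme switch library plasmids (mCherry, or eGFP in some ligand experiments). Total RNA was extracted with EDTA 72 h after transfection, with any ligand added 1 h before it.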

theophylline [3] = variants of: B1; assay: normalized RNA/DNA level without ligand (relative to sTRSVctl = 100) (log10 (% of sTRSVctl)); higher = less ribozyme self-cleavage, higher mRNA level; conditions: HEK293T, reporter: mCherry (pCS4076), ligand present: no
Procedure, shortened: as §2

theophylline [4] = variants of: B1; assay: FACS-Seq fitted mean relative fluorescence mCherry/BFP with ligand (log10 relative fluorescence); ligand concentration (+) FACS-Seq: 1 mM; higher = higher reporter protein expression; conditions: HEK293T, ligand present: yes
Procedure, shortened: as §1

hypoxanthine [5] = variants of: B2; assay: FACS-Seq fitted mean relative fluorescence mCherry/BFP without ligand (log10 relative fluorescence); ligand: hypoxanthine (xanthine aptamer); higher = higher reporter protein expression; conditions: HEK293T, ligand present: no
Description: (§3)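 Hammerhead (sTRSV) ribozyme switch libraries with a ligand aptamer grafted on stem I and a randomized N4-6 loop II, cloned into the 3' UTR of mCherry and transiently transfected into HEK293T cells; RNA-Seq 72 h post transfection with ligand added 1 h before transfection; RNA read count / plasmid DNA read count normalized to the non-cleaving sTRSVctl (x100), log10; sequences with >100 DNA reads. FACS-Seq: lentiviral library sorted into 6 bins after 48 h ligand, log-normal fit mean of mCherry/BFP scaled to controls. Printed sequences are partial switch sequences.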

hypoxanthine [6] = variants of: B2; assay: normalized RNA/DNA level with ligand (relative to sTRSVctl = 100) (log10 (% of sTRSVctl)); ligand: hypoxanthine (xanthine aptamer); higher = less ribozyme self-cleavage, higher mRNA level; conditions: ligand concentration (+) RNA-Seq: 5 mM, HEK293T, reporter: mCherry (pCS4076), ligand present: yes
Description: as §3

hypoxanthine [7] = variants of: B2; assay: normalized RNA/DNA level without ligand (relative to sTRSVctl = 100) (log10 (% of sTRSVctl)); ligand: hypoxanthine (xanthine aptamer); higher = less ribozyme self-cleavage, higher mRNA level; conditions: HEK293T, reporter: mCherry (pCS4076), ligand present: no
Description: as §3

hypoxanthine [8] = variants of: B2; assay: FACS-Seq fitted mean relative fluorescence mCherry/BFP with ligand (log10 relative fluorescence); ligand: hypoxanthine (xanthine aptamer); ligand concentration (+) FACS-Seq: 5 mM; higher = higher reporter protein expression; conditions: HEK293T, ligand present: yes
Description: as §3

Variant | FACS-Seq fitted mean (log10) (theophylline [1]) | normalized RNA/DNA level with ligand (log10) (theophylline [2]) | normalized RNA/DNA level without ligand (log10) (theophylline [3]) | FACS-Seq fitted mean (log10) (theophylline [4]) | FACS-Seq fitted mean (log10) (hypoxanthine [5]) | normalized RNA/DNA level with ligand (log10) (hypoxanthine [6]) | normalized RNA/DNA level without ligand (log10) (hypoxanthine [7]) | FACS-Seq fitted mean (log10) (hypoxanthine [8])
AGCUA | 0.662 ± 0.064 | 2.03 ± 0.037 | 1.76 ± 0.044 | 0.7922 ± 0.0018 |  |  |  | 
AAUUC | 0.308 ± 0.094 | 1.981 ± 0.015 | 1.96 ± 0.033 | 0.335 ± 0.031 |  |  |  | 
CUCCC | 0.836 ± 0.04 | 2.05 ± 0.12 | 2 ± 0.14 | 0.811 ± 0.012 |  |  |  | 
UUCCC | 1.02 ± 0.027 | 1.97 ± 0.04 | 1.99 ± 0.031 | 0.9913 ± 0.0095 |  |  |  | 
UGAGU | 0.6996 ± 0.0034 | 2.02 ± 0.17 | 1.86 ± 0.12 | 0.676 ± 0.013 |  |  |  | 
ACCAG | 0.9579 ± 0.0021 | 1.93 ± 0.028 | 1.83 ± 0.059 | 1.02 ± 0.047 |  |  |  | 
CGGAU | 0.215 ± 0.064 | 2 ± 0.11 | 1.65 ± 0.11 | 0.522 ± 0.046 |  |  |  | 
CCUCU | 0.198 ± 0.07 | 1.93 ± 0.039 | 1.87 ± 0.036 | 0.0585 ± 0.1 |  |  |  | 
AUUAA | 0.68 ± 0.04 | 1.94 ± 0.11 | 1.74 ± 0.099 | 0.832 ± 0.041 |  |  |  | 
GAAGA | 0.532 ± 0.0054 | 1.89 ± 0.051 | 1.46 ± 0.36 | 0.761 ± 0.092 |  |  |  | 
AAAUC | 0.4981 ± 0.0025 | 1.89 ± 0.034 | 1.9 ± 0.099 | 0.511 ± 0.021 |  |  |  | 
ACCAU | 0.574 ± 0.037 | 1.993 ± 0.011 | 1.86 ± 0.02 | 0.605 ± 0.068 |  |  |  | 
ACGAC | 1.26 ± 0.14 | 1.981 ± 0.0072 | 1.834 ± 0.018 | 1.19 ± 0.2 |  |  |  | 
GAAUG | 0.627 ± 0.023 | 1.9 ± 0.028 | 1.6 ± 0.093 | 0.713 ± 0.037 |  |  |  | 
UGGAU | 0.442 ± 0.064 | 2 ± 0.12 | 1.79 ± 0.056 | 0.624 ± 0.073 |  |  |  | 
AAUUA | 0.392 ± 0.024 | 1.973 ± 0.0011 | 1.63 ± 0.13 | 0.477 ± 0.006 |  |  |  | 
UUAUU | 0.914 ± 0.092 | 1.96 ± 0.12 | 1.95 ± 0.11 | 0.942 ± 0.076 |  |  |  | 
CCCUC | 0.893 ± 0.045 | 2.032 ± 0.012 | 2.11 ± 0.057 | 0.84 ± 0.019 |  |  |  | 
CUAAC | 1.02 ± 0.018 | 1.94 ± 0.028 | 1.85 ± 0.019 | 0.893 ± 0.18 |  |  |  | 

Variant | FACS-Seq fitted mean (log10) (theophylline [1]) | normalized RNA/DNA level with ligand (log10) (theophylline [2]) | normalized RNA/DNA level without ligand (log10) (theophylline [3]) | FACS-Seq fitted mean (log10) (theophylline [4]) | FACS-Seq fitted mean (log10) (hypoxanthine [5]) | normalized RNA/DNA level with ligand (log10) (hypoxanthine [6]) | normalized RNA/DNA level without ligand (log10) (hypoxanthine [7]) | FACS-Seq fitted mean (log10) (hypoxanthine [8])
UCUUC |  | 2.03 ± 0.1 | 1.97 ± 0.046 |  |  |  |  | 
UUUGC |  | 2.05 ± 0.042 | 1.93 ± 0.023 |  |  |  |  | 
UUCAA |  | 2.08 ± 0.056 | 1.86 ± 0.12 |  |  |  |  | 
CAUUC |  | 2.07 ± 0.066 | 1.92 ± 0.099 |  |  |  |  | 
CAAAAA |  |  |  |  | 0.52 ± 0.1 | 1.9 ± 0.04 | 1.74 ± 0.025 | 0.526 ± 0.038
AAAAAA |  |  |  |  | 0.738 ± 0.02 | 1.9 ± 0.042 | 1.8 ± 0.033 | 0.664 ± 0.03
GAAAAA |  |  |  |  | 0.653 ± 0.036 | 1.91 ± 0.027 | 1.8 ± 0.041 | 0.629 ± 0.093
UAAAAA |  |  |  |  | 0.315 ± 0.015 | 1.905 ± 0.019 | 1.784 ± 0.00081 | 0.22 ± 0.0062
CAAAAC |  |  |  |  | 0.248 ± 0.079 | 1.9 ± 0.035 | 1.78 ± 0.028 | 0.0907 ± 0.058
GAAAAC |  |  |  |  | 0.271 ± 0.058 | 1.87 ± 0.053 | 1.7 ± 0.033 | 0.271 ± 0.06
UAAAAC |  |  |  |  | 0.723 ± 0.03 | 1.914 ± 0.0064 | 1.826 ± 0.0019 | 0.769 ± 0.068
CAAAAG |  |  |  |  | 0.0525 ± 0.066 | 1.87 ± 0.026 | 1.59 ± 0.038 | 0.174 ± 0.031
GAAAAG |  |  |  |  | 0.326 ± 0.035 | 1.83 ± 0.0058 | 1.47 ± 0.038 | 0.473 ± 0.036
AAAAAG |  |  |  |  | 0.286 ± 0.03 | 1.841 ± 0.013 | 1.52 ± 0.036 | 0.588 ± 0.046
GAAAAU |  |  |  |  | 0.558 ± 0.04 | 1.92 ± 0.034 | 1.8 ± 0.02 | 0.532 ± 0.074
UAAAAU |  |  |  |  | 0.434 ± 0.055 | 1.89 ± 0.071 | 1.76 ± 0.0046 | 0.454 ± 0.039
AAAAAU |  |  |  |  | 0.418 ± 0.0049 | 1.9 ± 0.06 | 1.74 ± 0.023 | 0.55 ± 0.021
GAAACA |  |  |  |  | 0.6 ± 0.025 | 1.91 ± 0.047 | 1.857 ± 0.0049 | 0.389 ± 0.13
AAAACA |  |  |  |  | 0.709 ± 0.064 | 1.897 ± 0.015 | 1.804 ± 0.015 | 0.65 ± 0.023
